Test results taken from patent US20230104705A1 (CELLULAR BIOMEDICINE GROUP HK, published 2023).

Legend:
CD20 = biological target: T1, CD20 (UniProt P11836 1-297); experiment: flow cytometry on A549-CD20, A549-CD19-CD20 and Raji cells, 20 µg/mL
T1 construct: whole, on cells; also called B1; CD20 on A549-CD20, A549-CD19-CD20, K562-CD20+, K562-CD19+CD20+, Raji and Ramos cells
T1 sequence (looked up): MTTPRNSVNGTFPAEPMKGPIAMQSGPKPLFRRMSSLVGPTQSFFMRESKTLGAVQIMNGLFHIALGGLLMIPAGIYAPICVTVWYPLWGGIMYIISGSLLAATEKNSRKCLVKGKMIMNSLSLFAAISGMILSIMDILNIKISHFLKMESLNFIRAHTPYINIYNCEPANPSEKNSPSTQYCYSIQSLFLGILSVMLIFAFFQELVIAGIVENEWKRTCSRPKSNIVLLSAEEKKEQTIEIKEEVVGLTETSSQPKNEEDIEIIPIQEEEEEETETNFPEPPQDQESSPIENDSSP
Text: (§1) To examine the affinity and specificity of the bi-specific scFv in TN-OF 19 CAR, a chimeric rabbit monoclonal antibody was generated by linking the CD20 scFv, derived from the Ofatumumab mAb and the CD19 scFv, derived from the FMC63 mAb in frame with a rabbit IgG1 Fc region. CD19 and CD20 scFvs were alternatively linked by a G4S linker. The molecular order is OF VL-VH-G4S-FMC63 VH-VL, which is the same as scFVs in TN-OF-19. The chimeric antibody was expressed in 293T cells after transient transfection. Validation of this chimeric antibody for specificity of staining was performed by flow cytometry. Briefly, three stable cell lines (A549-CD19, A549-CD20, A549-CD19-CD20) were used as targets, and CD19-CD20-A549 cells and CD19+CD20+ Raji cells were used as control. All cells were washed and resuspended, blocking by 2% serum for 30 minutes. 5×10⁵ cells were transferred to FACS vials, washed and stained with recombinant antibodies (final concentration 20 μg/mL) for 1 h at 4° C. After washing, the secondary antibody (goat anti-rabbit IgG) was added for 30 minutes in dark at 4° C. Finally, cells were washed and resuspended in 200 μL FACS buffer for FACS analysis.

CD19 = biological target: T2, CD19 (UniProt P15391 20-556); experiment: flow cytometry on A549-CD19, A549-CD19-CD20 and Raji cells, 20 µg/mL
T2 construct: whole, on cells; also called CD19 on A549-CD19, A549-CD19-CD20, K562-CD19+, K562-CD19+CD20+ and Raji cells
T2 sequence (looked up): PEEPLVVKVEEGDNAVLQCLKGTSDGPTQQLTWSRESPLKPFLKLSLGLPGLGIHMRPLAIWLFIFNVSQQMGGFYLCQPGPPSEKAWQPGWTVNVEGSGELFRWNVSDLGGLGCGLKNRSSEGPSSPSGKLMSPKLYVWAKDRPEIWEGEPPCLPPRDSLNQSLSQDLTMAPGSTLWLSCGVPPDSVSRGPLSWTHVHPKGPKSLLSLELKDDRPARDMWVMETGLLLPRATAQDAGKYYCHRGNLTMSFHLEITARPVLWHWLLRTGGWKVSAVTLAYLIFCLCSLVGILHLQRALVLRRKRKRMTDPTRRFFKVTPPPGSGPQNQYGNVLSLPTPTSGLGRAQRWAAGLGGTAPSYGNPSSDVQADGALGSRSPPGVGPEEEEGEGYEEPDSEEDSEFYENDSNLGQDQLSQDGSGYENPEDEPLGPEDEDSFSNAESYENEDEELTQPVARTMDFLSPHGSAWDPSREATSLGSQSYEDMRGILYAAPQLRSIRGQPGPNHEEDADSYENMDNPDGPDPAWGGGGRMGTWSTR
Text: as §1

B1: chimeric rabbit monoclonal antibody (CD20 scFv derived from the Ofatumumab mAb and CD19 scFv derived from the FMC63 mAb, in frame with a rabbit IgG1 Fc region; … (bispecific antibody)
chain: EIVLTQSPATLSLSPGERATLSCRASQSVSSYLAWYQQKPGQAPRLLIYDASNRATGIPARFSGSGSGTDFTLTISSLEPEDFAVYYCQQRSNWPITFGQGTRLEIKGSTSGGGSGGGSGGGGSSEVQLVESGGGLVQPGRSLRLSCAASGFTFNDYAMHWVRQAPGKGLEWVSTISWNSGSIGYADSVKGRFTISRDNAKKSLYLQMNSLRAEDTALYYCAKDIQYGNYYYGMDVWGQGTTVTVSSGGGGSEVKLQESGPGLVAPSQSLSVTCTVSGVSLPDYGVSWIRQPPRKGLEWLGVIWGSETTYYNSALKSRLTIIKDNSKSQVFLKMNSLQTDDTAIYYCAKHYYYGGSYAMDYWGQGTSVTVSSGSTSGSGKPGSGEGSTKGDIQMTQTTSSLSASLGDRVTISCRASQDISKYLNWYQQKPDGTVKLLIYHTSRLHSGVPSRFSGSGSGTDYSLTISNLEQEDIATYFCQQGNTLPYTFGGGTKLEIT
notes: Expressed in 293T cells after transient transfection; also called chimeric antibody; recombinant antibodies; not shown: rabbit IgG1 Fc region
binding result (CD20): binds
binding result (CD19): binds
